T1: MBF1 (Giardia lamblia, UniProt A8BZ03 1-107)
T1 sequence: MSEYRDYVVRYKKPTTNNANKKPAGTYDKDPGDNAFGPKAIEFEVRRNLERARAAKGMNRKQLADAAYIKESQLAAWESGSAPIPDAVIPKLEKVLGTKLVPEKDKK

B1: 18S-30/-1 (dsDNA)
DNA 1: GGCGCCCGGCCCGCGGCGCCCGCGCCCGGC
DNA 2: GCCGGGCGCGGGCGCCGCGGGCCGGGCGCC
B2: poly(A) (dsDNA)
DNA 1: AAAAAAAAAAAAAAAAAAAAAAA
DNA 2: TTTTTTTTTTTTTTTTTTTTTTT
B3: poly(A) with TT insertion (dsDNA)
DNA 1: AAAAAAAAAAATTAAAAAAAAAA
DNA 2: TTTTTTTTTTAATTTTTTTTTTT
B4: cwp1-90/-46 (dsDNA)
DNA 1: CTGGCTAACAGTCTACAGTCTACAATTTACAGTATACAATCTACA
DNA 2: TGTAGATTGTATACTGTAAATTGTAGACTGTAGACTGTTAGCCAG
B5: cwp2-30/+8 (dsDNA)
DNA 1: CAGCAGCTCAACAGTGGCTGGGAAAATAAAATGATCGC
DNA 2: GCGATCATTTTATTTTCCCAGCCACTGTTGAGCTGCTG
B6: myb2-30/-1 (dsDNA)
DNA 1: TACTAAAATAATAATTACTCTGTACTGCTA
DNA 2: TAGCAGTACAGAGTAATTATTATTTTAGTA
B7: cwp2-60/-31 (dsDNA)
DNA 1: TAGACTGATGCTGTAGAGGTCAACAGATAA
DNA 2: TTATCTGTTGACCTCTACAGCATCAGTCTA
B8: ran-51/-20 (dsDNA)
DNA 1: TAAAATAAATTAAATCGAAATTAAAACTTTAA
DNA 2: TTAAAGTTTTAATTTCGATTTAATTTATTTTA
B9: poly(A) with T insertion (dsDNA)
DNA 1: AAAAAAAAAAATAAAAAAAAAAA
DNA 2: TTTTTTTTTTTATTTTTTTTTTT
B10: cwp3-60/-31 (dsDNA)
DNA 1: GTAGACTTTGAGTTACTTAGCTCTACAGTT
DNA 2: AACTGTAGAGCTAAGTAACTCAAAGTCTAC
B11: cwp1-45/-1 (dsDNA)
DNA 1: GTTTACAACTCTCAGATCAAGAAACACAGAAATAAAATATCAGGG
DNA 2: CCCTGATATTTTATTTCTGTGTTTCTTGATCTGAGAGTTGTAAAC

These binders were tested against T1, MBF1 (assay: EMSA; EMSA, 5 ng purified protein, 5'-end-labeled ds oligonucleotides, 6% polyacrylamide gel; buffer, salt, pH and temperature not given (cited to ref 19)). Details: protein: recombinant; tags: C-terminal V5 and His (pET101/D-TOPO).

| Binder | binding result |
| --- | --- |
| B1 | no binding |

Same assay, conditions: protein: recombinant; tags: C-terminal V5 and His (pET101/D-TOPO); label: 5'-32P

| Binder | binding result |
| --- | --- |
| B2 | binds |
| B3 | binds |
| B4 | binds |
| B5 | binds |
| B6 | binds |
| B7 | binds |
| B8 | binds |
| B9 | binds |
| B10 | binds |

What follows are binders tested against T1, MBF1 (assay: EMSA; supershifted by anti-V5-HRP; competed by 200-fold cold cwp1-45/-1; EMSA, 5 ng purified protein, 5'-end-labeled ds oligonucleotides, 6% polyacrylamide gel; buffer, salt, pH and temperature not given (cited to ref 19)). Details: protein: recombinant; tags: C-terminal V5 and His (pET101/D-TOPO); label: 5'-32P.

| Binder | binding result |
| --- | --- |
| B11 | binds |
